Data on one protein can be found in patent US20210070811A1 (BOARD OF TRUSTEES OF MICHIGAN STATE UNIVERSITY, published 2021).

The data set deals with the molecule itself. Put plainly: circular dichroism of PilA19 with SDS at pH 3.8; 222 nm/208 nm intensity ratio of 1. For orientation: Circular dichroism is the unequal absorption of left and right circularly polarised light.

B1: PilA19 (truncated PilA pilin peptide of Geobacter sulfurreducens lacking the first 19 N-terminal amino acids of the mature PilA) (peptide)
peptide: AIPQFSAYRVKAYNSAASSDLRNLKTALESAFADDQTYPPES
notes: Recombinant peptide made in E. coli as a CBD-intein fusion and released by DTT-induced intein splicing; 42 residues; It self-assembles into a fibre; also called PilA19 peptide; recombinant PilA19
Regarding B1, the binding result is recorded as “binds”.
